In PMC3325491 (Structure(London, England:1993), 2012):

Legend:
[1] = target: HPV16 E6N domain (residues 1-80), wild type (HPV16); experiment: NMR titration
SEC = target: the molecule itself; experiment: SEC
AUC = target: the molecule itself; experiment: AUC

## HPV16 E6N domain (residues 1-80), wild type (domain or fragment)
[1]
  Kd: 290 µM

B1: HPV11 MBP-E6N fusion construct (E6N residues 1-81) (domain or fragment)
chain: MESKDASTSATSIDQLCKTFNLSLHTLQIQCVFCRNALTTAEIYAYAYKNLKVVWRDNFPFAACACCLELQGKINQYRHFN
SEC
  stoichiometry N: 2

B2: HPV18 E6N domain (residues 1-82) (domain or fragment)
chain: MARFEDPTRRPYKLPDLCTELNTSLQDIEITCVYCKTVLELTEVFEFAFKDLFVVYRDSIPHAACHKCIDFYSRIRELRHYS
AUC
  stoichiometry N: 2
